Experimental findings from publication PMC6190850, “The RNA-Recognition Motifs of TAR DNA-Binding Protein 43 May Play a Role in the Aberrant Self-Assembly of the Protein” are described below.

Conditions in all cases: protein: recombinant; tags: 6xHis-SUMO removed by TEV; single strand
Data set [1] addresses TDP-43 RRM1 (with 15-aa C-terminal linker) (UniProt Q13148 102-191). The experiment in a line: BLI; BLI (Octet RED), 10 mM potassium phosphate pH 7.2, 150 mM KCl, 0.05% Tween, 25 C; RNA on streptavidin sensors, protein 1 nM-15 uM. (In general: Biolayer interferometry detects binding as a change in optical thickness at a sensor tip.)
For the next data set, the target named is TDP-43 RRM1-2 (UniProt Q13148 102-269). The description is as above.
The next data set addresses TDP-43 RRM2 (UniProt Q13148 192-269). The experiment in a line: BLI; no Kd could be determined, protein up to 15 uM; BLI (Octet RED), 10 mM potassium phosphate pH 7.2, 150 mM KCl, 0.05% Tween, 25 C; RNA on streptavidin sensors, protein 1 nM-15 uM.

Sequence of TDP-43 RRM1-2 (Q13148 102-269): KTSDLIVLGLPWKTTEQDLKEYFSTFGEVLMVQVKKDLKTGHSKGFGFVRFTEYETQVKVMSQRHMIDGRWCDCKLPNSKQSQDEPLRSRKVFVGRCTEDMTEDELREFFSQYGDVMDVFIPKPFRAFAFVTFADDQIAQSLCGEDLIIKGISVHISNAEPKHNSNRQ
Sequence of TDP-43 RRM1 (with 15-aa C-terminal linker) (Q13148 102-191): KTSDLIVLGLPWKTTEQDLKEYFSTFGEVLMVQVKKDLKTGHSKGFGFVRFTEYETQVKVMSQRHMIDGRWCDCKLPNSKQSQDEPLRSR
Sequence of TDP-43 RRM2 (Q13148 192-269): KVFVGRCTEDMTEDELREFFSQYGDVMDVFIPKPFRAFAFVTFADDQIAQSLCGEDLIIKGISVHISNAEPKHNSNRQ

By Kd is commonly meant the constant that tells how readily two partners part at equilibrium. Consider AUUCAUUCACAC (ssRNA) [NegAUG12], for which the values for the Kd (in data set [1]; in the data set with TDP-43 RRM1-2) were 2550 ± 480 nM and 2600 ± 600 nM, respectively. The binding result with TDP-43 RRM2 was “no binding”.

On to GUGUGAAUGAAU (ssRNA) [AUG12], for which the Kd was 480 ± 90 nM in data set [1] and 3.9 nM with TDP-43 RRM1-2.
